In publication PMC2265524, “ruvA Mutants That Resolve Holliday Junctions but Do Not Reverse Replication Forks” (PLoS Genetics, 2008):

Assays:
[1] = target: T1, RuvA wild type (Escherichia coli, UniProt P0A809 1-203); test: EMSA; EDTA; complexes I and II; EMSA with ~4-5 ng labelled DNA; 5 mM EDTA (gel 0.5x TBE) or 3 mM MgCl2 without EDTA (gel 0.5x TB + 200 uM MgCl2); buffer as in cited ref 18; salt, pH and temperature not stated; conditions: protein: recombinant; chain copies: 4; label: 5' IRD700 on S24 (IT.01); four-way junction of 4 strands
T1 sequence: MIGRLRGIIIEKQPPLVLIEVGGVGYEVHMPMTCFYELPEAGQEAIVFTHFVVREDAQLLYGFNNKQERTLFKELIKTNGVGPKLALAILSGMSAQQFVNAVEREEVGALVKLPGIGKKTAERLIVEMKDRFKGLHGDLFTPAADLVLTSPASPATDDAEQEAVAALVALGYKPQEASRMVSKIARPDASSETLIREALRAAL

[2] = target: T2, wild-type RuvB protein (E. coli) (UniProt P0A812)
T2 sequence: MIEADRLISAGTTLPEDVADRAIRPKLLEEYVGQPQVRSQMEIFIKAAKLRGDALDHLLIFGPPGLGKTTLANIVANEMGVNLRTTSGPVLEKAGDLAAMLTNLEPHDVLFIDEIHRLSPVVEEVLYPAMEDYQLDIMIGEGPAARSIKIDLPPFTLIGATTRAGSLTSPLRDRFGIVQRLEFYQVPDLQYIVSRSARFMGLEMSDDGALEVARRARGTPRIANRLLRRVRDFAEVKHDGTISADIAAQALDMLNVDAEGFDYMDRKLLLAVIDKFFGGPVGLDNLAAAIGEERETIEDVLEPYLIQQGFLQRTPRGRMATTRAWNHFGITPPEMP

[3] = target: the molecule itself; test: SDS-PAGE without boiling the protein samples; purified RuvA mutant proteins run on SDS-PAGE without boiling; tetramer band under denaturing gel conditions; data not shown

| Binder | stoichiometry N [3] | further results |
| --- | --- | --- |
| X12 (synthetic Holliday junction) (structured_DNA) DNA 1: GACGCTGCCGAATTCTACCAGTGCCTTGCTAGGACATCTTTGCCCACCTGCAGGTTCACCC DNA 2: TGGGTGAACCTGCAGGTGGGCAAAGATGTCCTAGCAATGTAATCGTCAAGCTTTATGCCGTT DNA 3: CAACGGCATAAAGCTTGACGATTACATTGCTAGGACATGCTGTCTAGAGGATCCGACTATCGA DNA 4: ATCGATAGTCGGATCCTCTAGACAGCATGTCCTAGCAAGGCACTGGTAGAATTCGGCAGCGT |  | binding result [1]: binds |
| wild-type RuvA (natural protein) MIGRLRGIIIEKQPPLVLIEVGGVGYEVHMPMTCFYELPEAGQEAIVFTHFVVREDAQLLYGFNNKQERTLFKELIKTNGVGPKLALAILSGMSAQQFVNAVEREEVGALVKLPGIGKKTAERLIVEMKDRFKGLHGDLFTPAADLVLTSPASPATDDAEQEAVAALVALGYKPQEASRMVSKIARPDASSETLIREALRAAL |  | RuvA concentration required for RuvB (250 nM) to unwind 50% of a labelled 52-mer annealed to phiX174 ssDNA (DNA helicase assay) [2]: 100 nM |
| RuvAz87 (natural protein, E. coli, UniProt P0A809 1-203, looked up, RuvA of E. coli with the two mutations N79D N100D; Purification steps and expression construct of the mutant proteins are in the supplementary material (Text S1); also called ruvAz87 (N79D N100D); ruvA87; source: over-expressed in E. coli and purified) MIGRLRGIIIEKQPPLVLIEVGGVGYEVHMPMTCFYELPEAGQEAIVFTHFVVREDAQLLYGFNNKQERTLFKELIKTDGVGPKLALAILSGMSAQQFVDAVEREEVGALVKLPGIGKKTAERLIVEMKDRFKGLHGDLFTPAADLVLTSPASPATDDAEQEAVAALVALGYKPQEASRMVSKIARPDASSETLIREALRAAL | 4 |  |
| RuvAz3 (natural protein, E. coli, UniProt P0A809 1-203, looked up, RuvA of E. coli with the three mutations H29R K129E F140S; Purification steps and expression construct of the mutant proteins are in the supplementary material (Text S1); also called ruvAz3 (H29R K129E F140S); pGB-ruvAz3; source: over-expressed in E. coli and purified) MIGRLRGIIIEKQPPLVLIEVGGVGYEVRMPMTCFYELPEAGQEAIVFTHFVVREDAQLLYGFNNKQERTLFKELIKTNGVGPKLALAILSGMSAQQFVNAVEREEVGALVKLPGIGKKTAERLIVEMEDRFKGLHGDLSTPAADLVLTSPASPATDDAEQEAVAALVALGYKPQEASRMVSKIARPDASSETLIREALRAAL | 4 |  |
